Measurements reported in paper PMC8225110, “The Divergent Key Residues of Two Agrobacterium fabrum (tumefaciens) CheY Paralogs Play a Key Role in Distinguishing Their Functions” (Microorganisms, 2021).

Target: T1, GST-FliM fusion protein (Agrobacterium fabrum C58, UniProt Q44457 1-321)
T1 construct: Flagellar motor switch protein FliM (atu0561) of Agrobacterium fabrum C58; Cloned in pGEX-4T-1; not shown: GST, N-terminal, kept
T1 sequence (looked up): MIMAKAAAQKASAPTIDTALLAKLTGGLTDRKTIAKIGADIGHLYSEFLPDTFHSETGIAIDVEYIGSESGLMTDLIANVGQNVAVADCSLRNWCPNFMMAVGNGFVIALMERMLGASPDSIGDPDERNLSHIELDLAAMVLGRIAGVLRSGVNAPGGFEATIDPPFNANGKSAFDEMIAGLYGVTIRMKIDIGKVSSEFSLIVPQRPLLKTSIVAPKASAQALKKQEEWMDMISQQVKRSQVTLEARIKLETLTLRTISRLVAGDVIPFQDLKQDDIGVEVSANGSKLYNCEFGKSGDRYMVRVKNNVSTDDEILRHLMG
Experiment: pull-down; GST-FliM on glutathione-Sepharose 4B beads, crude extract of CheY-6×his in PBS with MgCl2 and acetyl phosphate (phosphorylating conditions), 4 °C, 1 h; Western blot with anti-6×his antibody
Settings: one partner purified

B1: CheY2-6×his fusion protein, phosphorylated with acetyl phosphate (natural protein, Agrobacterium fabrum C58, UniProt Q7D1A5 1-129, looked up)
chain: MSLAEKIKVLIVDDQVTSRLLLSDALTQLGFKQITSAGDGEQGLKIMEQQPHHLVISDFNMPKMDGLGFLHAVRANPTTKKAAFIILTAQGDRALVQKAAQLGANNVLAKPFTIDKMRAAIEAVFGSLK
modifications: phosphorylated by acetyl phosphate (residue not given)
notes: Chemotaxis response regulator CheY2 (atu0520) of Agrobacterium fabrum C58; Same construct as m11; the extent of phosphorylation was not measured; also called CheY2-P; source: E. coli BL21 (DE3), crude extract, with acetyl phosphate (phosphorylating conditions); not shown: His6, C-terminal, kept
In the case of B1, the “fold band intensity pulled down, against CheY1-6×his” value is reported as about 5 fold.
